B1: Protein Mdm4 (Homo sapiens), O15151 (parent)
chain: MTSFSTSAQCSTSDSACRISPGQINQVRPKLPLLKILHAAGAQGEMFTVKEVMHYLGQYIMVKQLYDQQEQHMVYCGGDLLGELLGRQSFSVKDPSPLYDMLRKNLVTLATATTDAAQTLALAQDHSMDIPSQDQLKQSAEESSTSRKRTTEDDIPTLPTSEHKCIHSREDEDLIENLAQDETSRLDLGFEEWDVAGLPWWFLGNLRSNYTPRSNGSTDLQTNQDVGTAIVSDTTDDLWFLNESVSEQLGVGIKVEAADTEQTSEEVGKVSDKKVIEVGKNDDLEDSKSLSDDTDVEVTSEDEWQCTECKKFNSPSKRYCFRCWALRKDWYSDCSKLTHSLSTSDITAIPEKENEGNDVPDCRRTISAPVVRPKDAYIKKENSKLFDPCNSVEFLDLAHSSESQETISSMGEQLDNLSEQRTDTENMEDCQNLLKPCSLCEKRPRDGNIIHGRTGHLVTCFHCARRLKKAGASCPICKKEIQLVIKVFIA

Variants of: B1
Conditions: with ima4_human KPNA3, O00505
Chain of ima4_human KPNA3, O00505 (O00505 whole entry): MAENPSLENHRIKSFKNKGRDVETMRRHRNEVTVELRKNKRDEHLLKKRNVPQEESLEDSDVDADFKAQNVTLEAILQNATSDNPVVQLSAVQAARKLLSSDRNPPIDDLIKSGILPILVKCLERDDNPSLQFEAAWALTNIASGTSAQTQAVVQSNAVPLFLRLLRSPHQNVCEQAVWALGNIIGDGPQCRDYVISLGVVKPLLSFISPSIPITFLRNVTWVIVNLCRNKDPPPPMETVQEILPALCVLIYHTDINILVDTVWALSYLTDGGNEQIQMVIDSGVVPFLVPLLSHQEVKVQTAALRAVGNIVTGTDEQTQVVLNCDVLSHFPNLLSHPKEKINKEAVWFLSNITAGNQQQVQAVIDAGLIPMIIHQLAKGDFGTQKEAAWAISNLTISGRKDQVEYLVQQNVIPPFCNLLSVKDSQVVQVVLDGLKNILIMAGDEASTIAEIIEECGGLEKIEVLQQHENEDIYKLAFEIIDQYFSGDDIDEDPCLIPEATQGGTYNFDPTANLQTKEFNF

Variant	effect of a mutation on the interaction
K468E	disrupting interaction
